Assay results reported in the RNAGym collection of RNA variant scans (doi:10.7554/elife.80360).

B1: HDV Ribozyme (parent)
chain: GGCCGGCAUGGUCCCAGCCUCCUCGCUGGCGCCGGCUGGGCAACAUUCCGAGGGGACCGUCCCCUCGGUAAUGGCGAAUGGGACCCA

Variants of: B1
Assay: self-cleavage, relative activity (ratio to wild type); higher = more cleavage; co-transcriptional
For G5A A16U, the self-cleavage was 0.356. Variant U65C U69A has a self-cleavage of 0.989. With A51U G82C the self-cleavage was 0.282. In the case of U20A A87U, the self-cleavage is reported as 0.0282. A8G A42G gave a self-cleavage of 0.68. With C15G C61U the self-cleavage was 0.434. Work on G5A G76C yielded a self-cleavage of 0.0959. Variant C3U U79C has a self-cleavage of 0.342. G6A U65G gave a self-cleavage of 0.506. Work on G28C A56G yielded a self-cleavage of 0.107. For C15G G29U, the self-cleavage was 0. For C30G C33A, the self-cleavage was 0.0519. U27G G81C showed a self-cleavage of 0.277. In the case of A8C G54C, the self-cleavage is reported as 0.746. In the case of G5A A78U, the self-cleavage is reported as 0.101. For C7A U60G, the self-cleavage was 0.356. With G34C G52U the self-cleavage was 0.155. In the case of C22G U27C, the self-cleavage is reported as 0. In the case of G29U C75G, the self-cleavage is reported as 0.116. G17U U23A gave a self-cleavage of 0.397. C19G G73U gave a self-cleavage of 0.0545. G1U U65G showed a self-cleavage of 0.17. With G29U C64A the self-cleavage was 0.0665. G31A G80C showed a self-cleavage of 0.185. C4G G54C showed a self-cleavage of 0.213. Variant A42U C62A has a self-cleavage of 0.618. For G55U A78U, the self-cleavage was 0.224. In the case of C22G A43C, the self-cleavage is reported as 0.0811. Work on G50A A51U yielded a self-cleavage of 0.763. With U9C G39C the self-cleavage was 0.287. With G5C G73C the self-cleavage was 0.0639. For G34U C57U, the self-cleavage was 0.174. Work on C4U U47C yielded a self-cleavage of 0.554. In the case of C33U C63G, the self-cleavage is reported as 0.698. With U23A G80A the self-cleavage was 0.18. In the case of C22A G68C, the self-cleavage is reported as 0.22. G11A C41A showed a self-cleavage of 0.381. C4U G52U gave a self-cleavage of 0.831. In the case of U20A C21U, the self-cleavage is reported as 0.0898. In the case of C18U G39A, the self-cleavage is reported as 0.0302. For G29C G54U, the self-cleavage was 0.204. C63A G67C gave a self-cleavage of 0.544. A77G G81A gave a self-cleavage of 0.287. Variant A45C G52C has a self-cleavage of 0.752. C49U C84U showed a self-cleavage of 0.676. Variant C36G C62G has a self-cleavage of 0.142. G31A C62A gave a self-cleavage of 0.445. A70C G81A gave a self-cleavage of 0.453. Variant C36G A78C has a self-cleavage of 0.161. Variant C32A A43C has a self-cleavage of 0.162. C18U C86A gave a self-cleavage of 0.82. For C3A A51G, the self-cleavage was 0.444. Work on C49G U65G yielded a self-cleavage of 0.489. G17A A87G showed a self-cleavage of 0.745. Work on C4A U12G yielded a self-cleavage of 0.0536. For G35A C44U, the self-cleavage was 0.188. For G68C G76C, the self-cleavage was 1.03. Variant G35C U37G has a self-cleavage of 0.0504. G6C C41U showed a self-cleavage of 0. With U27G A78C the self-cleavage was 0.499. U60G A83G gave a self-cleavage of 0.712. Work on A51U C66G yielded a self-cleavage of 0.816. C3A U69A showed a self-cleavage of 0.406. Work on A45C U46G yielded a self-cleavage of 0.554. Variant G35C G82U has a self-cleavage of 0.0723. In the case of G6U C15U, the self-cleavage is reported as 0.646. In the case of C58U U79A, the self-cleavage is reported as 1.07. For A43G G73A, the self-cleavage was 0.219. G1A A56G showed a self-cleavage of 0. C21U C66A showed a self-cleavage of 0.153. With U27A A78U the self-cleavage was 0.256. Variant G39A U79G has a self-cleavage of 0.262. C14A G28U gave a self-cleavage of 0.0733. U9G C62G showed a self-cleavage of 0.462. C57G U65C gave a self-cleavage of 0.96. Variant G55A A70G has a self-cleavage of 0.89. For U12A A77U, the self-cleavage was 0. Variant C32G A83G has a self-cleavage of 0. Variant A8U A56C has a self-cleavage of 1.25. In the case of C41A A42G, the self-cleavage is reported as 0.269. C62A G82A showed a self-cleavage of 0.35. In the case of C57G A70U, the self-cleavage is reported as 0.96. In the case of G1A C84A, the self-cleavage is reported as 0. Work on C15U A42G yielded a self-cleavage of 0.246. C58U A70G gave a self-cleavage of 1.01. With C44A G54C the self-cleavage was 0.618. In the case of C30A C49G, the self-cleavage is reported as 0.232. For G2A G40C, the self-cleavage was 0. Work on G17C U69C yielded a self-cleavage of 0.269. G35A G76C showed a self-cleavage of 0.708. In the case of C15A U47C, the self-cleavage is reported as 0.317. U47A A70U showed a self-cleavage of 0.697. For G55U G76U, the self-cleavage was 0.993. U9C G53A showed a self-cleavage of 1.01. Work on G31A U47A yielded a self-cleavage of 0.332. For C26U G40A, the self-cleavage was 0.885. G39U A42G gave a self-cleavage of 0.249. C7G C63G gave a self-cleavage of 0.201. Variant C13A C22G has a self-cleavage of 0.026. U46A A77G showed a self-cleavage of 0.646. With C49G C61A the self-cleavage was 0.848. G2U C86U gave a self-cleavage of 0.095. In the case of G40A G76A, the self-cleavage is reported as 0.918. G73C G82C gave a self-cleavage of 0.175. For G6A C36U, the self-cleavage was 0.286. For U12C C19G, the self-cleavage was 0.0723. Work on C13A G74U yielded a self-cleavage of 0.0443. In the case of G17U C24G, the self-cleavage is reported as 0.128. With A51G C63U the self-cleavage was 0.969. Variant U69G G80A has a self-cleavage of 0.233. C24U U60G showed a self-cleavage of 0.573. Variant U46G G73U has a self-cleavage of 0.514. G10A C33G gave a self-cleavage of 0.0767. For C13G C86G, the self-cleavage was 0.0978. Work on C44U G50U yielded a self-cleavage of 0.772. C41G A51C gave a self-cleavage of 0.635. For A8U C21G, the self-cleavage was 0.119. Work on G74C C86U yielded a self-cleavage of 0.189. Variant C62A C86A has a self-cleavage of 1.01. Work on C26U U65A yielded a self-cleavage of 0.769. C63G U72A gave a self-cleavage of 0.458. G10C C18G gave a self-cleavage of 0.0594. C24U G59U showed a self-cleavage of 0.736. In the case of U12A C36G, the self-cleavage is reported as 0.0707. Variant C61G G68A has a self-cleavage of 1.02. With G31C G35A the self-cleavage was 0.16. Work on C22A G76C yielded a self-cleavage of 0.447. G40A U47A showed a self-cleavage of 0.997. With G6U G68A the self-cleavage was 0.483. In the case of U47C G67U, the self-cleavage is reported as 0.892. In the case of U37C G76A, the self-cleavage is reported as 0.972. Variant C21U C75A has a self-cleavage of 0.0739. U27G C86A gave a self-cleavage of 0.767. In the case of G10A A77G, the self-cleavage is reported as 0.53. Variant G52C C75G has a self-cleavage of 0.104. C7G G80C showed a self-cleavage of 0. Variant C61G G74U has a self-cleavage of 0.466. C41A C84G showed a self-cleavage of 0.749. U23C C63U showed a self-cleavage of 0.984. G1U G53U showed a self-cleavage of 0.355. In the case of G31C G38A, the self-cleavage is reported as 0.0692. Work on G6C C24G yielded a self-cleavage of 0.151. Work on C3A A16C yielded a self-cleavage of 0.0875. Work on U9A C84G yielded a self-cleavage of 0.554. G17A G67U showed a self-cleavage of 0.776. With G25C G52C the self-cleavage was 0.166. C64U G82A showed a self-cleavage of 0.487. Work on G17A G81C yielded a self-cleavage of 0.204. G53A C57U gave a self-cleavage of 1.06. In the case of G2U C86A, the self-cleavage is reported as 0.152. Variant C4U U79A has a self-cleavage of 0.755. Variant A16G U37C has a self-cleavage of 0.997. Work on G1C U9C yielded a self-cleavage of 0. In the case of C33A U65G, the self-cleavage is reported as 0.244. With A77C A83U the self-cleavage was 0.312. For G34U A87U, the self-cleavage was 0.141. With A8C C64G the self-cleavage was 0.415. In the case of A77G A83C, the self-cleavage is reported as 0.208. G1U G76U gave a self-cleavage of 0.359. For U37A A56G, the self-cleavage was 0.107. Variant U9C C19U has a self-cleavage of 0.208. With C19G A45C the self-cleavage was 0.0583. With U69G A83C the self-cleavage was 0.554. In the case of U9C C32U, the self-cleavage is reported as 0.862. For C44U C48G, the self-cleavage was 0.567. C22G A70G showed a self-cleavage of 0.185. C15A C66U gave a self-cleavage of 0.909.
